The data set in a line: soluble on expression in E. coli; label from the status in PepcDB or PDB records.
With “MNMPMTERIRAGKLFTDMCEGLPEKRLRGKTLMYEFNHSHPSEVEKRESLIKEMFATVGENAWVEPPVYFSYGSNIHIGRNFYANFNLTIVDDYTVTIGDNVLIAPNVTLSVTGHPVHHELRKNGEMYSFPITIGNNVWIGSHVVINPGVTIGDNSVIGAGSIVTKDIPPNVVAAGVPCRVIREINDRDKHYYFKDYKVESSV”, the “soluble on expression in E. coli” value is “soluble”.

Take “MSLGGSVEVLHWWTAGGEAKAVSALKDQFEAEGGTWIDSPVAGGGGDAAMTALRSRVIAGNPPSAVQLKGPSIQEWAAEGVVANLDDIAKAENWDKLLPALLKSVVTYEGHYVAVPVNIHRVDWLWANPAVLAKAGVAVPTTWDEFNTAAEALKAKGIIPLAHGGQPWQDATLFEVVVLGLGGPAFYHKALVELDDAALRGDTMVKVFDQMRRLRGFVDPNFSGRDWNLATAMVINGEAGFQIMGDWAKGEFLGAGKVPGKDFLCIAAPGKGFLLNSDSLVMFDVKGADKIEGQKTLARLVLGETFQRTFNTLKGSIPARQGMDLADFDACAQKSQADLTKAIAADSLEPSMAHEMAVPRSVRGAIMDVVTAHFNSSESSAEAVAHLADSIAQAREGHHHHHH”: the “soluble on expression in E. coli” value is given as “soluble”.

Consider “MLPLIKRLFSSAPKDGEGAQKKWPFSYVVVLLLAGVALMAASHWANSGEEAEAKPSAGQPSAPAEPAFLASKETKEKVIAAYEERYEKELKAALEAIEGVDDVTVVVNLDSTELKLYEKKRSTQQQTTEESDKEGGKRTIENESTNEEVIIIHNGEEETPLVVATKKPDIRGVLVVAKGADNLQIKKWIVEAVTRVLNVPSYRVAVLPKK”, for which the “soluble on expression in E. coli” value is reported as “not soluble”.

With “MGLDIRFTGVADSSGALHDPDGLDIRGVLEHKKRAGLGSHPSGYEGMTGDELLDEAEYDCLVEATPTNIEDGEPGRSLVLKAMGDGKHVVTSNKGHLALFYSELMEAASEAGVEFMFEASVGGAMPIINLARETLASCTIESVIGILNGTTNFILSRMASEGSSYRQALIEAQELGIAETNPAQDVEGTDAACKAVIIANSILGRPCTLRDVRVEGITGITQGAIELAAQEGYLIKLIAEISGDRLEVGPRLVRMGSPYAVDGTLNMATLRTDLAGEVTAVGRGAGSLETASAMLTDTITIWRKSGLEHHHHHH”, the “soluble on expression in E. coli” value is recorded as “not soluble”.

For the sequence “MRLFECGTLVPGCAWHTRADDDAEVVRRTVDHMRSAHGETIIRENMIENIKSRIRDEANAA”, the “soluble on expression in E. coli” value is recorded as “not soluble”.

Regarding “MSLKELIALKRKVGLPGVTFAAMADGIWVLQVLPGAGIEKTGLRKGHQIVGVGGKPLAGNKLEDLFKAIEANNITDTMSRGSSERMYSRMTRDTKTQGPVVVLNVKQSRQQEKPFLILCKKEMFRSKIIEIEEDEFEDEVLKAPLPVAVTFWGDSCEPCKEFVPVLEAESAKYAGKVKFVNINVDGNRKLADQLAVKEVPALMVYKGGSAVATATGKLPREKVAEMLQDAAGREGHHHHHH”, the “soluble on expression in E. coli” value is given as “soluble”.

On to “MLAYQGTQIKEKRDEDAGFDLCVPYDIMIPVSDTKIIPTDVKIQVPPNSFGWVTGKSSMAKQGLLINGGIIDEGYTGEIQVICTNIGKSNIKLIEGQKFAQLIILQHHSNSRQPWDENKISQRGDKGFGSTGVF”, for which the “soluble on expression in E. coli” value is “soluble”.

Turning to “MGSDKIHHHHHHMTLTYFLDKETDTPIYKQLYESLRKDILSGKLKTGAKLPSIRHFAQTLNVSVITVQNAYHQLEAEGYITSRDRSGYYVENLAGLTLLERQDAKIIHAPHHDQASEDQIIDFSPSNIDNAQFPLSIWRKCVNETLLNHETRFNHHGAKLGELPLRAAVADYVTKSRILDCTEEQVVIFEGIEHSMNILSLLFKQMGKTAIMEQPSYKVIEDIFSLHQLPIQRVPSPKGVLSLEDLQEQKNGVLYLTPSHQYPYGSFLSIQERIKIINWAQNSESYVIEDDYDGEFRYDIDPVPSLQGLSKNHVIYIGTFSKTLSPAIRVSYAILPPELMKRYQEVCSMFPSPVSVHLQLALAKFMEDGHYERHIRRMRKYYKEKQDFLIATIQEVMGDHAALHGTTAGLHLVLELKNNSRPYKQLLAAARAHGVNIYPVKDVTPNPYFILGFSGLPREKITEGIRRLHKAWIE”, the “soluble on expression in E. coli” value is given as “not soluble”.

For the sequence “MLVKGNEILLKAHKEGYGVGAFNFVNFEMLNAIFEAGNEENSPLFIQASEGAIKYMGIDMAVGMVKIMCERYPHIPVALHLDHGTTFESCEKAVKAGFTSVMIDASHHAFEENLELTSKVVKMAHNAGVSVEAELGRLMGIEDNISVDEKDAVLVNPKEAEQFVKESQVDYLAPAIGTSHGAFKFKGEPKLDFERLQEVKRLTNIPLVLHGASAIPDNVRKSYLDAGGDLKGSKGVPFEFLQESVKGGINKVNTDTDLRIAFIAEVRKVANEDKSQFDLRKFFSPAQLALKNVVKERMKLLGSANKI”, the “soluble on expression in E. coli” value is recorded as “soluble”.

“MHHHHHHSSGVDLGTENLYFQSMLNTSGSGTILIDLSPDDKEFQSVEEEMQSTVREHRDGGHAGGIFNRYNILKIQKVCNKKLWERYTHRRKEVSEENHNHANERMLFHGSPFVNAIIHKGFDERHAYIGGMFGAGIYFAENSSKSNQYVYGIGGGTGCPVHKDRSCYICHRQLLFCRVTLGKSFLQFSAMKMAHSPPGHHSVTGRPSVNGLALAEYVIYRGEQAYPEYLITYQIMRPEG”: the “soluble on expression in E. coli” value is given as “soluble”.

On to “MGSDKIHHHHHHMVNHTQFRQWGRKVIDIEKAALDNLYQYVDSVEFDQACQLIMQCKGKVIVMGMGKSGHIGNKISATFASTGTPAFFVHPGEASHGDLGALAKNDIVLAISNSGESSEILTLMPVIQRMGVPVIAVTGKPDSNMARLSKIHLCIQVQEEACPLGLAPTSSTTATLAMGDALAIALLQAKGFTRDDFALSHPGGSLGRKLLLKVDDVMHQGDDLPIVNDDICITDALYEISKKGLGMTAVVDHASKLVGIFTDGDLRRVIDADVNLRTTSIAHVMTKNCVTSPAGILAAQALQIMDEKSINGLIVVNEKHQPIGALNMLDMVKAGVI”, for which the “soluble on expression in E. coli” value is “not soluble”.

Regarding “MSALFEPYTLKDVTLRNRIAIPPMSQYMAEDGMINDWHHVHLAGLARGGAGLLVVEATAVAPEGRITPGCAGIWSDAHAQAFVPVVQAIKAAGSVPGIQIAHAGRKASANRPWEGDDHIAADDTRGWETIAPSAIAFGAHLPKVPREMTLDDIARVKQDFVDAARRARDAGFEWIELHFAHGYLGQSFFSEHSNKRTDAYGGSFDNRSRFLLETLAAVREVWPENLPLTARFGVLEYDGRDEQTLEESIELARRFKAGGLDLLSVSVGFTIPDTNIPWGPAFMGPIAERVRREAKLPVTSAWGFGTPQLAEAALQANQLDLVSVGRAHLADPHWAYFAAKELGVEKASWTLPAPYAHWLERYR”, the “soluble on expression in E. coli” value is given as “soluble”.

Regarding “MASLPTANPDLVVSDAKKPKWSWRAIKSFAMGELEARKLKYPNTGTEALLMGILIEGTSFTSKFLRANKIMLYKVREETVKLLGKADMYFFSPEHPPLTEDAQRALDSALDQNLKAGGIGEVMPAHILLGIWSEVESPGHKILATLGFTDEKSKELESFASESGFLDELEHHHHHH”, the “soluble on expression in E. coli” value is reported as “soluble”.

For “MWFGEFGGQYVPETLIEPLKELEKAYKRFKDDEEFNRQLNYYLKTWAGRPTPLYYAKRLTEKIGGAKIYLKREDLVHGGAHKTNNAIGQALLAKFMGKTRLIAETGAGQHGVATAMAGALLGMKVDIYMGAEDVERQKMNVFRMKLLGANVIPVNSGSRTLKDAINEALRDWVATFEYTHYLIGSVVGPHPYPTIVRDFQSVIGREAKAQILEAEGQLPDVIVACVGGGSNAMGIFYPFVNDKKVKLVGVEAGGKGLESGKHSASLNAGQVGVFHGMLSYFLQDEEGQIKPTHSIAPGLDYPGVGPEHAYLKKIQRAEYVTVTDEEALKAFHELSRTEGIIPALESAHAVAYAMKLAKEMSRDEIIIVNLSGRGDKDLDIVLKVSGNV”, the “soluble on expression in E. coli” value was “soluble”.

On to “MAHHHHHHMPLRACVSRTPAQARLVEVVSDYVQHLMDMQASRCAETSLDGHVVPPPNAKYPSHDFFCATHAPAISVKKYTDRLVTYMHCSPEAFVFAVAYLRRLVLSGFPMHLQSIHRLLLTAVLVALKCRDDVYYHMSFYAEVGGVTSKDLRIMEIRFLSDLIRFEGEVSLADYHVVMVDMMRVTERRMITNISGKTEMCNRCGMSAGAFTTSIPGDLGCLHCKGDAFAHSWTSECELFWGPLNSAFSLPSGEV”, for which the “soluble on expression in E. coli” value is “not soluble”.

For “MDDLMKDRIDLLIDYIMKHCLWQFHSRSWDRKRQNEGILTKTTQLLCDEPVDLGTPADKCYWVDAVCLADAYKSRYPWLKTMDKDDIKALMGALHERLDHLTITGSLNLELTDQHYLEHHHHHH”, the “soluble on expression in E. coli” value is listed as “soluble”.

Regarding “MSLSSRYTPSEMAQALGAGLLSFPVTHFDADMAFDEPAYRSNLDWLSSHPAAGLFAAGGTGELFSLTLDEVDRAVRAAVTQTAGRMPVIAPAGYGTAIAVAMAQAAERNDADGILLFPPYLTECDADGVAEHVERVCKATSLGVIVYGRANARLDDVALARVAERCPNLVGYKDGIGDVERMTRIYARLGDRLLYVGGLPTAETFALPYLEMGVTTYSSAIFNFLPEWALSFYAAVRARDHATIYRELNDFVLPYTVLRNRRAGYAVSIVKAGMRAVGRPAGPVRTPLADLTEDEFAQLTQLIGGRREGHHHHHH”, the “soluble on expression in E. coli” value is reported as “not soluble”.

For “MGSDKIHHHHHHMRLYTRTGDKGKTSVIGGRLAKDDTRVVAYGTTDELNSFVGLAITQLDENTFADIRGELFKIQHELFDCGGDLAMLKVKEDRPYKAKQEIVDFLEQRIDAYIKEAPELERFILPGGSEAAASLHVCRTIARRAERYVVRLQQEGEINPIVLKYLNRLSDYFFAVARVVNSRLQVPDVEYERSAIVFREGKRKEDKK”, the “soluble on expression in E. coli” value was “not soluble”.

As for “MSLKYVDEFREPEKAEALCREITKLSHQLEKPIKIMEVCGGHTHSIFKYGIEEILPQTIELIHGPGCPVCVMPKGRLDDAIAISQNHNVIFATFGDAMRVPGSKTSLLQARAQGADIRMVYSPLDSLQIAKDHPDREVVFFALGFETTAPSTGFTIVQAAAEEIHNFSMFSNHVLVIPALKALLDNPDLQLDGFVGPGHVSMVIGSDPYQFISQQYNKPIVVSGFEPLDILQSIWMLLQQIVENRCEVENQYNRIVQKSGNTVALQAINKVFAVRDSFDWRGLGDIPYSGLKIKPEYAQFDAELKFTIPNLKVADHKACKCGEILKGVLKPWECKVFGTACTPETPIGTCMVSSEGACAAYYKYGRLSTIAKRTITQKPKITQEPLPACGFSLDEGHHHHHH”, the “soluble on expression in E. coli” value was “not soluble”.

As for “METPIAEELAKKQKSISVAEFFEKNRQILGFDSAPRSLITTVKEAVDNALDACEEAGILPDILVQVERTGPDYVTVIIEDNGPGIVREQIPKVFAKLLYGSRFHALKQSRGQQGIGISAAVLYAQMTAGRHTKILSKTSPTAPAHYYELMINTSTNEPDILVDEVRDWFRPHGTQIELEMRAAYVKGRRQSIYEYLKATAIVNPHARITLIDPDGNEEVFERATDKMPEPAEEILPHPEGIELGTLMKMLHYTERQKLAPFLRYSFCKIGLLTAEEICKAAGLDPEIDPHALGRHEARKLIEAFEKVKIMAPPTDCLSPIGEDLIYRGLEKETTVDFIATSTRKPAVYSGNPFVVEVGMAYGGNLPKEEKISIMRFANRVPLLYQQGGCVTTHAVEDIKWKQYGLNQPGGGIPVGPVILLIHVASINVPFTSESKDAIADIPVIKEEIDLAIKEVARKLKHYLSKQSNLKKRREKEIIITKVLPKLAAKVAHVLEKDVPDINPVVAKIMGNLLVHRVIKNNGDGTVDVAIKVKNFGTSAYSFRVHEMLPCKVSGAKPEPKVVTMGNDYDYVWDISASAGSSKVLSYKIESASEEELQKLPQLIVEGIEEELVTGAKAFKGV”, the “soluble on expression in E. coli” value was “soluble”.

Values taken from the DeepSol protein solubility set.
